In article PMC3481213:

B1: BdCAD3 (Brachypodium distachyon) (protein)
chain: MEQGKAALGWAARDASGHLSPYNFSRRVQKDDDVTIKVLFCGICHTDLHIIKNEWGNALYPIVPGHEVVGVVTDVGPGVKNFKAGETVGVGYFLDSCRTCDSCSKGHENYCPTLVLTSNGVDYDGATTQGGFSDVVVVNQDYVVRVPDTLPPDGAAPLLCAGVTVYSPMMQYGLNAPGKHLGVVGLGGLGHMAVKFGKAFGMKVTVISSSLRKREEALDRLGADDFLVSSDAEQMKAAAGAMDGIIDTVSAGHPIVPLLELLRPMGQMVVCGAPSEPLQLPAYAVITGGKRIAGNGVGSVRDCQAMLDFAGEHGITADVEVVKMDYVNTAVERLERNDVRYRFVIDVAGSLQQGGAA
B2: BdCAD5 (Brachypodium distachyon) (protein)
chain: MGSIASEERTVTGWAARDADGHLSPYTYTLRKTGPEDVLVKVLYCGICHTDIHQAKNHLGASKYPMVPGHEVVGEVVEVGGEVSKYSAGDVVGVGVIVGCCRECRPCKASVEQYCNKRIWSYNDVYTDGRPTQGGFSSAMVVDQKFVVRIPAGLAPEQAAPLLCAGVTVYSPLKHFGLMSPGLRGGILGLGGVGHMGVKVAKSMGHHVTVISSSGKKRAEAMDDLGADAYLVSSDADQMAAAADSLDYVIDTVPVKHPLEPYLSLLKMDGKLVLMGVIGEPLSFVSPMVMLGRKSITGSFIGSMEETEEVLKFCVEKGLTSQIEVVKMDYLNEALERLERNDVRYRFVVDVAGSKIEDAA

Legend:
[1] = target: Brachypodium distachyon cinnamyl alcohol dehydrogenase 5 (BdCAD5), recombinant 6xHis-tagged (Brachypodium distachyon); assay: SEC
purified protein [2] = substrate: COc1cc(/C=C/C=O)ccc1O; assay: purified protein; conditions: co-substrate NADPH
purified protein [3] = substrate: COc1cc(/C=C/CO)ccc1O; assay: purified protein; conditions: co-substrate NADP+, 100 mM TRIS-HCl pH 8.8, 23 °C, n = 1
[4] = 100 mM sodium acetate pH 5.35, 23 °C
[5] = 200 mM potassium phosphate pH 6.25, 23 °C

Molecule	percent of peak area at the dimer position [1]	stoichiometry N [1]	Km (purified protein [2]; [4])	Vmax (purified protein [2]; [4])	kcat (purified protein [2]; [4])	kcat/Km (purified protein [2]; [4])	Km (purified protein [3])	Vmax (purified protein [3])	kcat (purified protein [3])	kcat/Km (purified protein [3])	Km (purified protein [2]; [5])	Vmax (purified protein [2]; [5])	kcat (purified protein [2]; [5])	kcat/Km (purified protein [2]; [5])
Brachypodium distachyon cinnamyl alcohol dehydrogenase 5 (BdCAD5), recombinant 6xHis-tagged (enzyme)	24%	2	–	–	–	–	–	–	–	–	–	–	–	–
B1	–	–	33.3 ± 3.80 µM	9.26 µmol/min/mg	8.66 s⁻¹	260000 M⁻¹ s⁻¹	509.1 ± 134.0 µM	36.7 µmol/min/mg	34.3 s⁻¹	67000 M⁻¹ s⁻¹	–	–	–	–
B2	–	–	–	–	–	–	1.44 ± 0.24 µM	7.91 µmol/min/mg	10.3 s⁻¹	7.19e+06 M⁻¹ s⁻¹	3.1 ± 0.44 µM	29.5 µmol/min/mg	38.6 s⁻¹	1.29e+07 M⁻¹ s⁻¹
